Usually Kd stands for the equilibrium constant for the complex coming apart.

Four molecules from US20040259770A1, “Method for determining leukocyte activation” (Rush University Medical Center, priority 2003, published 2004) can be followed below.

Like-named read-outs stand apart in the source and are kept apart here.

The target of assay [1] is lactoferrin receptors on eosinophils. Kind of assay: Binding of 125I-labeled lactoferrin by eosinophils, Scatchard analysis. Also on record: species or system human. As to conditions: three experiments, 2 hours at room temperature. The method, then:
Lactoferrin (100 micrograms) was radioiodinated using IODO-GEN iodination reagent (Pierce; Rockford, Ill.) according to the procedure supplied by the manufacturer. The lactoferrin was incubated with 400 micro Curies Na^125I (PerkinElmer Life Sciences; Boston, Mass.) for 3 min, and the ^125I-labeled lactoferrin was separated from free Na^125I by chromatography through a 5-ml D-Salt dextran desalting column (Pierce) using PBS as the elution buffer. Protein concentration of the ^125I-labeled lactoferrin was measured by the BCA assay (Pierce). Specific activity of the ^125I-labeled lactoferrin was 34,800 cpm/pmole. […] Binding of ^125I-labeled lactoferrin by eosinophils was determined using a modification of previously described protocols for eosinophils. Motegi et al. J. Immunol. 161:4340 (1998); Lopez et al., J. Biol. Chem. 266:24741 (1991). Eosinophils (2×10^6) were incubated with the indicated concentrations of ^125I-labeled lactoferrin alone and in the presence of excess unlabeled lactoferrin in RPMI 1640 containing 20 mM HEPES, 0.5% BSA, and 0.1% sodium azide (Lopez et al., J. Biol. Chem. 266:24741 (1991)) in siliconized glass tubes for 2 hr at room temperature on a circular oscillating platform. In some experiments as indicated, binding was measured in the presence of excess unlabeled transferrin. Total reaction volume was 0.15 ml. Reactions were stopped by centrifugation (1300 g for 4 min) of the reaction mixture through 200 microliters FCS in a 1.5 ml microcentrifuge tube. The supernatant was removed by careful aspiration, and after quick-freezing on dry ice the tip of the tube containing the cell pellet was excised and the radioactivity was measured by gamma counting (Beckman Coulter Gamma 5500B). Specific binding was determined as the difference between total binding and binding in the presence of the excess unlabeled lactoferrin. Binding constants were determined by Scatchard analysis (Scatchard, G., Ann. N.Y. Acad. Sci. 51:660 (1949)).

For assay [2], the system named is eosinophils. In words: Eosinophil superoxide production (cytochrome c reduction) in protein-coated tissue culture wells. As to conditions: 1 to 100 micrograms per milliliter of the protein, 2 hours at 37° C. Format: cell-based, human. Here is the method: Neutrophils were isolated from venous blood of healthy adult volunteers by density gradient centrifugation through lymphocyte separation medium (BioWhittaker; Walkersville, Md.) as described previously (Haskell M. D., et al., Blood 86:4627-4637 (1995)) with one modification. Isotonicity was restored following the brief hypotonic lysis steps by the addition of 2× concentrated Hank's Balanced Salt Solution (HBSS) (Gibco; Grand Island, N.Y.) (without Ca^2+ and Mg^2+) containing 5 mM HEPES, pH 7.4. The cells were suspended in HEPES (10 mM)-buffered HBSS (with Ca^2+ and Mg^2+), pH 7.4, containing 1 milligram per milliliter of human serum albumin (HSA) (Sigma Chemical Co.) (HEPES-HBSS-HSA buffer). Neutrophil purity was routinely greater than 95 percent, with eosinophils representing the remainder of the cells. Eosinophils were isolated from the neutrophil preparations by negative selection (Hansel T. T., et al., J. Immunol. Meth. 145:105-10 (1991)) using anti-CD16 immunomagnetic beads as described by the manufacturer (Miltenyi Biotec, Inc., Auburn, Calif.). The eosinophils were suspended in HEPES-HBSS-HSA buffer. Eosinophil purity was routinely greater than 95 percent as determined by counting Wright-stained cytospin preparations. In some assays, an aliquot of the neutrophil preparation was held on ice for later use.
Superoxide production was measured essentially as described elsewhere (Motegi, Y., and H. Kita, J. Immunol. 161:4340 (1998)). Briefly, wells in a 96-well (flat bottom) tissue culture plate (Corning, Inc.; Corning, N.Y.) were coated with human milk lactoferrin (Sigma Chemical Co.) or human secretory IgA (ICN Biomedical; Aurora, Ohio) by incubation with 50 microliters of the indicated concentrations of the proteins in phosphate buffered saline (PBS) overnight at 4° C. Non-specific protein binding sites were blocked by subsequent incubation with 100 microliters of 25 milligrams per milliliter of HSA in PBS for 2 hours at 37° C., and the tissue culture wells were washed twice with PBS before use. Aliquots (5×10^4 cells) of eosinophils or neutrophils were added to the wells and were incubated in HEPES-HBSS—HSA buffer containing 50 micromolar cytochrome c (Sigma Chemical Co.) for 120 minutes at 37° C. in a Ceres UV900HDi microplate reader (Bio-Tek Instruments, Inc., Winooski, Vt.). Total incubation volume was 0.2 milliliters. Absorbance at 550 nanometers was recorded at 15-minute intervals, and superoxide production was calculated as described previously (Motegi, Y., and H. Kita, J. Immunol. 161:4340 (1998)). Results are expressed as nanomoles superoxide per 10^5 cells after subtraction of spontaneous production, which was measured in tissue culture wells coated only with HSA. GM-CSF (R & D Systems; Minneapolis, Minn.), porcine heparin (Sigma Chemical Co.), or chondroitin sulfate C (Sigma Chemical Co.) was added to the incubation mixtures in some assays as indicated.

B1: ^125I-labeled lactoferrin: lactoferrin radioiodinated with IODO-GEN reagent, 34,800 cpm/pmole (protein, UniProt P02788 20-710, looked up)
Lactotransferrin: GRRRSVQWCAVSQPEATKCFQWQRNMRKVRGPPVSCIKRDSPIQCIQAIAENRADAVTLDGGFIYEAGLAPYKLRPVAAEVYGTERQPRTHYYAVAVVKKGGSFQLNELQGLKSCHTGLRRTAGWNVPIGTLRPFLNWTGPPEPIEAAVARFFSASCVPGADKGQFPNLCRLCAGTGENKCAFSSQEPYFSYSGAFKCLRDGAGDVAFIRESTVFEDLSDEAERDEYELLCPDNTRKPVDKFKDCHLARVPSHAVVARSVNGKEDAIWNLLRQAQEKFGKDKSPKFQLFGSPSGQKDLLFKDSAIGFSRVPPRIDSGLYLGSGYFTAIQNLRKSEEEVAARRARVVWCAVGEQELRKCNQWSGLSEGSVTCSSASTTEDCIALVLKGEADAMSLDGGYVYTAGKCGLVPVLAENYKSQQSSDPDPNCVDRPVEGYLAVAVVRRSDTSLTWNSVKGKKSCHTAVDRTAGWNIPMGLLFNQTGSCKFDEYFSQSCAPGSDPRSNLCALCIGDEQGENKCVPNSNERYYGYTGAFRCLAENAGDVAFVKDVTVLQNTDGNNNEAWAKDLKLADFALLCLDGKRKPVTEARSCHLAMAPNHAVVSRMDKVERLKQVLLHQQAKFGRNGSDCPDKFCLFQSETKNLLFNDNTECLARLHGKTTYEKYLGPQYVAGITNLKKCSTSPLLEACEFLRK
modifications: 125I label
notes: lactoferrin radioiodinated with IODO-GEN reagent, 34,800 cpm/pmole
On to B1, for which the Kd in assay [1] (mean+/−SE, listed as 125I-lactoferrin, read-out: KD, first class of receptors) is about 47 nM; in assay [1] (mean+/−SE, read-out: KD, first class of receptors), 47 nM; in assay [1] (read-out: KD, second class of receptors), about 260 nM. For the same molecule, in assay [2], the “stimulation of eosinophil superoxide production (in words)” value (“stimulation” below) is “retained full ability to stimulate eosinophil superoxide production”.

B2: immobilized deglycosylated lactoferrin: lactoferrin incubated with peptide N-glycosidase F for 72 hours at 37° C (protein, UniProt P02788 20-710, looked up)
Lactotransferrin: GRRRSVQWCAVSQPEATKCFQWQRNMRKVRGPPVSCIKRDSPIQCIQAIAENRADAVTLDGGFIYEAGLAPYKLRPVAAEVYGTERQPRTHYYAVAVVKKGGSFQLNELQGLKSCHTGLRRTAGWNVPIGTLRPFLNWTGPPEPIEAAVARFFSASCVPGADKGQFPNLCRLCAGTGENKCAFSSQEPYFSYSGAFKCLRDGAGDVAFIRESTVFEDLSDEAERDEYELLCPDNTRKPVDKFKDCHLARVPSHAVVARSVNGKEDAIWNLLRQAQEKFGKDKSPKFQLFGSPSGQKDLLFKDSAIGFSRVPPRIDSGLYLGSGYFTAIQNLRKSEEEVAARRARVVWCAVGEQELRKCNQWSGLSEGSVTCSSASTTEDCIALVLKGEADAMSLDGGYVYTAGKCGLVPVLAENYKSQQSSDPDPNCVDRPVEGYLAVAVVRRSDTSLTWNSVKGKKSCHTAVDRTAGWNIPMGLLFNQTGSCKFDEYFSQSCAPGSDPRSNLCALCIGDEQGENKCVPNSNERYYGYTGAFRCLAENAGDVAFVKDVTVLQNTDGNNNEAWAKDLKLADFALLCLDGKRKPVTEARSCHLAMAPNHAVVSRMDKVERLKQVLLHQQAKFGRNGSDCPDKFCLFQSETKNLLFNDNTECLARLHGKTTYEKYLGPQYVAGITNLKKCSTSPLLEACEFLRK
modifications: deglycosylated with PNGase F
notes: lactoferrin incubated with peptide N-glycosidase F for 72 hours at 37° C
With B2, in assay [2], the “stimulation” value is “stimulated superoxide production to the same extent and in the same concentration-dependent manner as immobilized mock-deglycosylated lactoferrin”.

B3: mock-deglycosylated lactoferrin: lactoferrin given the same treatment as deglycosylated lactoferrin but in the absence of PNGase F (protein, UniProt P02788 20-710, looked up)
Lactotransferrin: GRRRSVQWCAVSQPEATKCFQWQRNMRKVRGPPVSCIKRDSPIQCIQAIAENRADAVTLDGGFIYEAGLAPYKLRPVAAEVYGTERQPRTHYYAVAVVKKGGSFQLNELQGLKSCHTGLRRTAGWNVPIGTLRPFLNWTGPPEPIEAAVARFFSASCVPGADKGQFPNLCRLCAGTGENKCAFSSQEPYFSYSGAFKCLRDGAGDVAFIRESTVFEDLSDEAERDEYELLCPDNTRKPVDKFKDCHLARVPSHAVVARSVNGKEDAIWNLLRQAQEKFGKDKSPKFQLFGSPSGQKDLLFKDSAIGFSRVPPRIDSGLYLGSGYFTAIQNLRKSEEEVAARRARVVWCAVGEQELRKCNQWSGLSEGSVTCSSASTTEDCIALVLKGEADAMSLDGGYVYTAGKCGLVPVLAENYKSQQSSDPDPNCVDRPVEGYLAVAVVRRSDTSLTWNSVKGKKSCHTAVDRTAGWNIPMGLLFNQTGSCKFDEYFSQSCAPGSDPRSNLCALCIGDEQGENKCVPNSNERYYGYTGAFRCLAENAGDVAFVKDVTVLQNTDGNNNEAWAKDLKLADFALLCLDGKRKPVTEARSCHLAMAPNHAVVSRMDKVERLKQVLLHQQAKFGRNGSDCPDKFCLFQSETKNLLFNDNTECLARLHGKTTYEKYLGPQYVAGITNLKKCSTSPLLEACEFLRK
modifications: mock-deglycosylated
As to B3, the “stimulation” value in assay [2] is listed as “did not differ from that of control lactoferrin”.

B4: soluble lactoferrin: human milk lactoferrin added in solution to HSA-coated wells (protein, UniProt P02788 20-710, looked up)
Lactotransferrin: GRRRSVQWCAVSQPEATKCFQWQRNMRKVRGPPVSCIKRDSPIQCIQAIAENRADAVTLDGGFIYEAGLAPYKLRPVAAEVYGTERQPRTHYYAVAVVKKGGSFQLNELQGLKSCHTGLRRTAGWNVPIGTLRPFLNWTGPPEPIEAAVARFFSASCVPGADKGQFPNLCRLCAGTGENKCAFSSQEPYFSYSGAFKCLRDGAGDVAFIRESTVFEDLSDEAERDEYELLCPDNTRKPVDKFKDCHLARVPSHAVVARSVNGKEDAIWNLLRQAQEKFGKDKSPKFQLFGSPSGQKDLLFKDSAIGFSRVPPRIDSGLYLGSGYFTAIQNLRKSEEEVAARRARVVWCAVGEQELRKCNQWSGLSEGSVTCSSASTTEDCIALVLKGEADAMSLDGGYVYTAGKCGLVPVLAENYKSQQSSDPDPNCVDRPVEGYLAVAVVRRSDTSLTWNSVKGKKSCHTAVDRTAGWNIPMGLLFNQTGSCKFDEYFSQSCAPGSDPRSNLCALCIGDEQGENKCVPNSNERYYGYTGAFRCLAENAGDVAFVKDVTVLQNTDGNNNEAWAKDLKLADFALLCLDGKRKPVTEARSCHLAMAPNHAVVSRMDKVERLKQVLLHQQAKFGRNGSDCPDKFCLFQSETKNLLFNDNTECLARLHGKTTYEKYLGPQYVAGITNLKKCSTSPLLEACEFLRK
On to B4, for which, in assay [2], the “stimulation” value is reported as “stimulated minimal superoxide production”.
